Substitutions are numbered along the chain they refer to.
T1: human CD73 on tumor cell line MDA-MB-231 that highly expresses human CD73 (human, UniProt P21589 27-549)
T1 sequence (looked up): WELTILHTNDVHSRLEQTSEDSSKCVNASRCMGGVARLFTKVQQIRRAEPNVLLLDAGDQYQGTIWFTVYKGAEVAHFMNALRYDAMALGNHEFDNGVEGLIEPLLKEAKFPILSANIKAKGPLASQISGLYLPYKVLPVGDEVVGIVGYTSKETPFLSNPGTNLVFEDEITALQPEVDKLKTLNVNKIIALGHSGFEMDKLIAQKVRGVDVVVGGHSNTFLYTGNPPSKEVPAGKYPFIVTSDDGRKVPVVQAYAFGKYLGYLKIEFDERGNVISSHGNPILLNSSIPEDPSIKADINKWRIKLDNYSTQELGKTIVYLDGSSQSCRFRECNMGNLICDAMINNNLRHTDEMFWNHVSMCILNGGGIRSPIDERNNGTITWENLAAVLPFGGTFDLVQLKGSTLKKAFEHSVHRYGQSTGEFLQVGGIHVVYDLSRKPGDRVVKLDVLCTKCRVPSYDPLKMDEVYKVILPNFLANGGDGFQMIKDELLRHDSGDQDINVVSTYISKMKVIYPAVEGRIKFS

T2: CD73-Myc-His (a fusion protein of the CD73 mature protein extracellular domain and Myc tag and His tag) (human, UniProt P21589 27-547, biotinylated with a kit (sites not given))
T2 construct: Captured on streptavidin-coated plates in the ELISA; also called biotinylated CD73-myc-his fusion protein; human CD73 protein
T2 sequence: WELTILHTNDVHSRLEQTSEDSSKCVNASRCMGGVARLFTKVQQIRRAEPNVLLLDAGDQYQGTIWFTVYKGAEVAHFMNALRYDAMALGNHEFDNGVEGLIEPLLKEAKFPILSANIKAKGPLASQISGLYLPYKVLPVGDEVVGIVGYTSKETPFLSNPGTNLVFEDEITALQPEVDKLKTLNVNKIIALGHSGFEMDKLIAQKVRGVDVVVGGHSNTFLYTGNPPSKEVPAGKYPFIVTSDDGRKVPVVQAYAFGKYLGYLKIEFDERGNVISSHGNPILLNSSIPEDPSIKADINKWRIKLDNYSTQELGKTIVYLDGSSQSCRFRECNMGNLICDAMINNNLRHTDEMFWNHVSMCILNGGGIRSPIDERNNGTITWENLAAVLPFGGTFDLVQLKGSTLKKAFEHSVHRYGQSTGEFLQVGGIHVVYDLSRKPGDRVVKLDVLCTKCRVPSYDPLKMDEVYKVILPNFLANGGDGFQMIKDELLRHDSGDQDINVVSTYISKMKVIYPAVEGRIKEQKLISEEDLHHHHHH

B1: CPX006 (antibody CPX-006 disclosed in patent application WO2018013611) (antibody, V domains shown)
VH: QVQLVQSGAEVEKPGASVKVSCKASGYTFTSYWITWVRQAPGQGLEWMGDIYPGSGNTNYNEKFKTRVTITADKSTSTAYMELSSLRSEDTAVYYCAKEGGLTTEDYALDYWGQGTLVTVSS
VL: EIVLTQSPATLSLSPGERATLSCRASKNVSTSGYSYMHWYQQKPGQAPRLLIYLASNLESGIPPRFSGSGYGTDFTLTINNIESEDAAYYFCQHSRELPFTFGQGTKVEIKR
B2: Hab108.64 (antibody, human IgG1, kappa, V domains shown)
VH: EVTLKQSGPGLVKPTETLTLTCTVSGFSLSSYGIQWVRQPPGKGLEWLGVIWSGGSADYNAAFISRLTISKDTSKSQVVLTMTNMDPVDTATYYCAGQYGSVWGQGTLVTVSS
VL: DIQMTQSPSSLSASVGDRVTITCRASQDIGDRLNWLQQKPGGAIKRLIYATSSLDSGVPKRFSGSGSGTEYTLTISSLQPEDFATYYCLQYAGSWTFGGGTKVEIKR
notes: also called humanized antibody of mab108
B3: Hab110.21 (antibody, human IgG1, kappa, V domains shown)
VH: EVQLVQSGAEVKKPGASVKVSCKASGYTFTSYTMHWVRQAPGQRLEWMGYINPNSFYIEYNQKFKDRVTITRDTSASTAYMELSSLRSEDTAVYYCARGDYDLFYDMDNWGQGTTVTVSS
VL: DIQMTQSPSSLSASVGDRVTITCRASQDIGNSLNWLQQKPGKAIKRLIYATFRLDSGVPSRFSGSRSGTEYTLTISSLQPEDFATYYCQQYASFPWTFGGGTKVEIKR
notes: also called humanized antibody of mab110
B4: Hab127.31d (antibody, human IgG1, kappa, V domains shown)
VH: EVQLVQSGAEVKKPGASVKVSCKASGYTFTAYFMNWVRQAPGQGLEWMGRIYHNKGDTFYSQKFKGRVTMTVDKSTSTVYMELSSLRSEDTAVYYCATSYVGDWGQGTTVTVSS
VL: B3 VL with N31D, K42G, I44L, F52S, R53S, R66G, Q89L
notes: also called humanized antibody of mab127

Molecular target: T1, human CD73 on tumor cell line …
Assay: cell-based or functional assay

IC50 (nM) in the assay showing the inhibition of enzyme activity in MDA-MB-231 cell [nM]	Binder
10.2	B1
0.53	B2
0.329	B3
0.505	B4

Molecular target: T2, CD73-Myc-His (a fusion protein of the …)
Assay: ELISA; biotinylated CD73-myc-his captured on streptavidin plate
Procedure: The binding of anti-CD73 antibodies to human CD73 protein was tested by ELISA assay. The biotinylated CD73 fusion protein was immobilized onto a 96-well microtiter plate by binding to the Streptavidin coated on the microtiter plate. The signal strength after the addition of the antibody was used to determine the binding activity of the antibody to CD73. The specific experimental procedures were as follows:
Streptavidin (Sigma, Cat No. S4762-5MG) was diluted with PBS, pH7.4 (Shanghai BasalMedia, Cat No. B320) buffer to a concentration of […], was added into the 96-well microtiter plate (Corning, Cat No. CLS3590-100EA), 50 μl/well, and incubated in an incubator at 37° C. for 2 hours. The liquid was discarded, 250 μl/well blocking solution (5% skim milk (BD skim milk, Cat No. 232100) diluted in PBS) was added, and incubated in an incubator at 37° C. for 3 hours or at 4° C. overnight (16-18 hours) for blocking. After blocking, the blocking solution was discarded; the plate was washed for 5 times with PBST buffer (PBS containing 0.05% tween-20, pH7.4), 50 μl/well of biotinylated CD73-myc-his fusion protein (Tojin Chemical, Cat No. LK03, biotinylation method was according to the kit's instruction) diluted with sample diluent (PBS containing 1% BSA, pH7.4) was added, and incubated in an incubator at 37° C. 1 hour or at 4° C. overnight. After the incubation was finished, the reaction solution was removed from the microtiter plate, the plate was washed for 5 times with PBST, 50 μl/well of various concentrations of each of the test antibodies (purified hybridoma antibodies or humanized antibodies, diluted with sample diluent) were added, and incubated in an incubator at 37° C. for 1 hour. After the incubation was finished, the plate was washed for 5 times with PBST, 50 µl/well of HRP-labeled goat anti-mouse secondary antibody (Jackson Immuno Research, Cat No. 115-035-003) or goat anti-human secondary antibody (Jackson Immuno Research, Cat No. 109-035-003) diluted with sample diluent was added, and incubated at 37° C. for 1 hour. The plate was washed for 5 times with PBST, 50 μl/well of TMB chromogenic substrate (KPL, Cat No. 52-00-03) was added, incubated at room temperature for 5-10 min, and 50 μl/well of 1M H₂SO₄ was added to stop the reaction.

EC50 [nM]	Binder
0.088	B1
0.047	B2
0.026	B3
0.026	B4
